Measured values taken from PMC4091980.

Tests used:
PH domain of AKT = PH domain of AKT (UniProt P31749); experiment: SPR
PH domain of PDK1 = PH domain of PDK1 (UniProt O15530); experiment: SPR
Sequence of UniProt O15530 (O15530 459-550): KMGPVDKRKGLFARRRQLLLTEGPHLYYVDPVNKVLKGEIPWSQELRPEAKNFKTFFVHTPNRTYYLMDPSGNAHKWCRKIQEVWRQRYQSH

Substance: PH domain of AKT (from UniProt P31749 5-108) (domain or fragment)
- Kd (PH domain of AKT): 37.6 nM
- Kd (PH domain of PDK1): 49.8 nM
